Assay results reported in the supplement of paper PMC7877785.
± gives the uncertainty stated by the source.

Test: self-splicing fitness, log relative to wild type (ln ratio); higher = more splicing; Tetrahymena group I intron in knt gene, E. coli kanamycin selection, DiMSum; sequences stand for … in CUCUCU…GGAGGGAAAAGUUAUCAGGCAUGCACCUGGUAGCUAGUCUUUAAACCAAUAGAUUGCAUCGGUUUAAAAGGCAAGACCGUCAAAUUGCGGGAAAGGGGUCAACAGCCGUUCAGUACCAAGUCUCAGGGGAAACUUUGAGAUGGCCUUGCAAAGGGUAUGGUAAUAAGCUGACGGACAUGGUCCUAACCACGCAGCCAAGUCCUAAGUCAACAGAUCUUCUGUUGAUAUGGAUGCAGUUCACAGACUAAAUGUCGGUCGGGGAAGAUGUAUUCUUCUCAUAAGAUAUAGUCGGACCUCUCCUUAAUGGGAGCUAGCGGAUGAAGUGAUGCAACACUGGAGCCGCUGGGAACUAAUUUGUAUGCGAAAGUAUAUUGAUUAGUUUUGGAGUACUCGUGGUCG
In short: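 Colonies from six replicate transformations of E. coli BL21(DE3) were pooled and amplicon-sequenced on an Illumina HiSeq 2500. The library placed an intron with all eight P1ex-region nucleotides randomised inside the knt kanamycin-resistance gene on pET-22b(+), and cells grew overnight at 37°C or 30°C on LB agar with or without 25 μg/mL kanamycin (plus 100 μg/mL carbenicillin, 50 μM IPTG, 0.2% rhamnose). Fitness is the DiMSum error-weighted combination of wild-type-normalised replicate fold changes, kanamycin versus none.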

Row | Sequence | self-splicing fitness (ln) (30 °C) | self-splicing fitness (ln) (37 °C)
1 | GUUGAGCAAUAUUACGAUUU | -1.2 ± 0.12 | -1.64 ± 0.16
2 | GUUGAGCAAUAUUACGCACA | -1.83 ± 0.14 | -0.945 ± 0.15
3 | GUUGAGCAAUAUUACGCAGA | -2.67 ± 0.34 | -3.6 ± 0.46
4 | GUUGAGCAAUAUUACGCAGC | -2.23 ± 0.35 | 
5 | GUUGAGCAAUAUUACGCCGA | -2.15 ± 0.41 | 
6 | GUUGAGCAAUAUUACGCGAU | -3.79 ± 0.3 | -2.47 ± 0.34
7 | GUUGAGCAAUAUUACGCUUU | -3.95 ± 0.48 | -2.45 ± 0.26
8 | GUUGAGCAAUAUUACGGACA | -0.932 ± 0.47 | -1.32 ± 0.43
9 | GUUGAGCAAUAUUACGGCUG | -1.41 ± 0.11 | -0.467 ± 0.14
10 | GUUGAGCAAUAUUACGGGAU | -3.14 ± 0.15 | -1.96 ± 0.15
11 | GUUGAGCAAUAUUACGGUGC | -2.79 ± 0.3 | -2.39 ± 0.44
12 | GUUGAGCAAUAUUACGUACG | -2.57 ± 0.39 | -2.31 ± 0.45
13 | GUUGAGCAAUAUUACGUACU | -2.91 ± 0.25 | -2.15 ± 0.2
14 | GUUGAGCAAUAUUACGUCUC |  | -0.823 ± 0.46
15 | GUUGAGCAAUAUUACGUGAC | -2.31 ± 0.24 | -2.48 ± 0.31
16 | GUUGAGCAAUAUUACGUGCA | -1.65 ± 0.45 | -0.908 ± 0.28
17 | GUUGAGCAAUAUUACGUGGA | -1.2 ± 0.37 | -2.45 ± 0.34
18 | GUUGAGCAAUAUUACGUUUA | -3.32 ± 0.28 | -2.33 ± 0.31
19 | GUUUAGCAAUAUUACGAACA | -2.02 ± 0.39 | -1.24 ± 0.26
20 | GUUUAGCAAUAUUACGACCC | -0.68 ± 0.19 | -0.133 ± 0.24
21 | GUUUAGCAAUAUUACGAGAG | -3.02 ± 0.17 | -2 ± 0.14
22 | GUUUAGCAAUAUUACGCAGG | -1.36 ± 0.2 | -2.04 ± 0.34

Row | Sequence | self-splicing fitness (ln) (30 °C) | self-splicing fitness (ln) (37 °C)
23 | GUUUAGCAAUAUUACGCGCC | -3.31 ± 0.43 | -2.51 ± 0.44
24 | GUUUAGCAAUAUUACGCGUG | -1.1 ± 0.071 | -0.806 ± 0.082
25 | GUUUAGCAAUAUUACGCUAG | -2.38 ± 0.16 | -0.42 ± 0.13
26 | GUUUAGCAAUAUUACGGAAG | -2.59 ± 0.23 | -0.848 ± 0.22
27 | GUUUAGCAAUAUUACGGCGG | -3.27 ± 0.44 | 
28 | GUUUAGCAAUAUUACGGGUU |  | -2.92 ± 0.35
29 | GUUUAGCAAUAUUACGGUGC | -1.02 ± 0.32 | 0.233 ± 0.44
30 | GUUUAGCAAUAUUACGUACG | -2.01 ± 0.14 | -0.33 ± 0.17
31 | GUUUAGCAAUAUUACGUUAG | -2.24 ± 0.21 | -0.81 ± 0.18
32 | GUUUAGCAAUAUUACGUUUU | -2.72 ± 0.14 | -1.65 ± 0.18
33 | UAAAAGCAAUAUUACGAAAC | -2.8 ± 0.19 | -3.3 ± 0.43
34 | UAAAAGCAAUAUUACGAAUC | -4.16 ± 0.42 | -2.13 ± 0.21
35 | UAAAAGCAAUAUUACGAGGA | -2.79 ± 0.17 | -1.54 ± 0.14
36 | UAAAAGCAAUAUUACGAGUA | -1.26 ± 0.068 | -0.418 ± 0.082
37 | UAAAAGCAAUAUUACGAUUC | -2.85 ± 0.17 | -1.02 ± 0.2
38 | UAAAAGCAAUAUUACGCAUU | -3.33 ± 0.19 | -2.15 ± 0.19
39 | UAAAAGCAAUAUUACGCCAC |  | -2.02 ± 0.36
40 | UAAAAGCAAUAUUACGCCCA | -0.0418 ± 0.15 | 0.358 ± 0.19
41 | UAAAAGCAAUAUUACGCGCC | -1.76 ± 0.2 | -0.751 ± 0.24
42 | UAAAAGCAAUAUUACGGAAA | -2.5 ± 0.23 | -1.72 ± 0.15
43 | UAAAAGCAAUAUUACGGCAA | -0.166 ± 0.1 | -0.176 ± 0.1
44 | UAAAAGCAAUAUUACGUAAG | -1.01 ± 0.079 | -0.764 ± 0.11
